This is an account of results in patent US20220281960A1 (RAMOT AT TEL AVIV UNIVERSITY, published 2022).

The target in this assay is T1, maltose binding protein (UniProt P0AEX9 27-396 = MBP).
T1 construct: also called MBP; carrier protein
As to the kind of experiment: ELISA on coated MBP. Background: In an ELISA, binding on a coated surface is turned into a signal by an enzyme label.

B1: P4-36 (antibody, V domains shown)
VH: EVQLVESGGGLVQPGRSLRLSCTDSGFTFSEYALSWVRQAPGKGLEWVGFIRSKAYGGTTEYAASVKGRFTISRDDSKSVAYLQMNSLKTEDTAVYFCTGPRPYYDSSGYYPYYFDYWGQGTLVTVSS
VL: QSALTQPRSVSGSPGQSVTISCTGSRSDVGGYDYVSWYQQHPGRVPKLMIYDVTKRPSGVPDRFSGSRSGNTASLTISGLQADDEADYYCSSFAGSSTYVVFGGGTTLTVL
notes: also called mAb P4-36; clone 3 antibody P4-36
With B1, the binding result is given as “no binding”.
